System: AMPK, active (upstate) protein

For PP2Cε protein (in vitro assay), the “dephosphorylation of AMPK” value was “the dephosphorylation of AMPK with PP2Cε occurs concentration-dependently”.
